Source: publication PMC4131202 (Current biology : CB, 2013)

Target: muscle actin filaments (UniProt P68135 1-377)
Assay: co-sedimentation

Kd: 2900 nM
B1: GST-Pan1(1633-1794), C-terminal fragment of fission yeast Pan1p including the A, PP and W domains (domain or fragment)
chain: PPAPSPLQPSGHDSDNWSQHGDEEEEDSEDDIRSSKDAAALAAKLFGGMAPAHPVSTPPVRPQSAAPPQMSAPTPPPPPMSVPPPPSAPPMPAGPPSAPPPPLPASSAPSVPNPGDRSALLQQIHTGTRLKKTVTTDKSKPIAGRVLDASDGNSSAWYGNLS
